Values belong to the substance of their own block, whether it stands above or below them.
Assays:
[1] = molecular target: E1 domain of chicken APP (chicken); assay: BLI; biotinylated E1 domain ([…] nM) immobilised on streptavidin tips, CNTN FN1–FN3 in solution; room temperature; 150 mM NaCl, 10 mM Na-Hepes pH 7.5, 1 mg/ml BSA, 0.02% Tween-20; BLItz or Octet K2; KD from the signal at equilibrium
[2] = molecular target: E1 domain of chicken APP, biotinylated (chicken); assay: BLI; BLItz; biotinylated amyloid E1 domain ([…] nM) immobilised on streptavidin tips, CNTN FN1-FN3 in solution; room temperature; 150 mM NaCl, 10 mM Na-Hepes pH 7.5, 1 mg/ml BSA, 0.02% Tween-20; average constants of the kinetic fit (the paper says koff attained or exceeded the accuracy limits of the instruments)
[3] = molecular target: E1 domain of chicken APP, biotinylated (chicken); assay: BLI; BLItz; biotinylated amyloid E1 domain ([…] nM) immobilised on streptavidin tips, CNTN FN1-FN3 in solution; room temperature; 150 mM NaCl, 10 mM Na-Hepes pH 7.5, 1 mg/ml BSA, 0.02% Tween-20; steady state KD from the maximal signal at equilibrium against concentration
[4] = molecular target: extracellular region of amyloid precursor protein (APP) fused to human IgG1 Fc or to FcYTS (UniProt P12023); assay: AlphaScreen or HTRF; ectodomain-FcYTS on Strep-Tactin donor beads and ectodomain-Fc on protein A acceptor beads; dialysed HEK293 conditioned media; both tag orientations; 1 h at room temperature; 150 mM NaCl, 20 mM Na-Hepes pH 7.5, 2 mM CaCl2, 2 mM MgCl2, BSA, Triton X-100, Tween-20; a pair counts with signal over background of at least two in each orientation
[5] = molecular target: E1 domain of mouse APP, biotinylated (mouse) (UniProt P12023); assay: BLI; BLItz; biotinylated amyloid E1 domain ([…] nM) immobilised on streptavidin tips, CNTN FN1-FN3 in solution; room temperature; 150 mM NaCl, 10 mM Na-Hepes pH 7.5, 1 mg/ml BSA, 0.02% Tween-20; average constants of the kinetic fit (the paper says koff attained or exceeded the accuracy limits of the instruments)
[6] = molecular target: E1 domain of human APLP1, biotinylated (human) (UniProt P51693); assay: as above
Sequence of E1 domain of human APLP1, biotinylated (human) (P51693 50-212): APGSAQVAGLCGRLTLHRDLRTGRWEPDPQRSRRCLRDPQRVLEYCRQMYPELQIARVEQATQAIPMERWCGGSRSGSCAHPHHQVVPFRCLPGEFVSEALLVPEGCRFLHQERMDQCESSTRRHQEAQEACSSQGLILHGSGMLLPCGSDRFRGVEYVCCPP

[7] = molecular target: E1 domain of human APP, biotinylated (human) (UniProt P05067); assay: as above
[8] = molecular target: E1 domain of human APLP1, biotinylated (human) (UniProt P51693); assay: BLI; BLItz; biotinylated amyloid E1 domain ([…] nM) immobilised on streptavidin tips, CNTN FN1-FN3 in solution; room temperature; 150 mM NaCl, 10 mM Na-Hepes pH 7.5, 1 mg/ml BSA, 0.02% Tween-20; steady state KD from the maximal signal at equilibrium against concentration
[9] = molecular target: E1 domain of human APP, biotinylated (human) (UniProt P05067); assay: as above
[10] = molecular target: E1 domain of human APLP2, biotinylated (human) (UniProt Q06481); assay: BLI; BLItz; biotinylated amyloid E1 domain ([…] nM) immobilised on streptavidin tips, CNTN FN1-FN3 in solution; room temperature; 150 mM NaCl, 10 mM Na-Hepes pH 7.5, 1 mg/ml BSA, 0.02% Tween-20; average constants of the kinetic fit (the paper says koff attained or exceeded the accuracy limits of the instruments)
Sequence of E1 domain of human APLP2, biotinylated (human) (Q06481 46-205): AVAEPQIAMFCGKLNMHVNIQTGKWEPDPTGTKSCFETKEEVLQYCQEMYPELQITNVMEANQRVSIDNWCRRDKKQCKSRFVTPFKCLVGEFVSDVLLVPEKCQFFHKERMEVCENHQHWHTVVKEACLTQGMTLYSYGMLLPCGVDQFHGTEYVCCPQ

[11] = molecular target: E1 domain of chicken APLP2 (chicken); assay: BLI; biotinylated E1 domain ([…] nM) immobilised on streptavidin tips, CNTN FN1–FN3 in solution; room temperature; 150 mM NaCl, 10 mM Na-Hepes pH 7.5, 1 mg/ml BSA, 0.02% Tween-20; BLItz or Octet K2; KD from the signal at equilibrium
[12] = molecular target: E1 domain of chicken APLP2, biotinylated (chicken); assay: BLI; BLItz; biotinylated amyloid E1 domain ([…] nM) immobilised on streptavidin tips, CNTN FN1-FN3 in solution; room temperature; 150 mM NaCl, 10 mM Na-Hepes pH 7.5, 1 mg/ml BSA, 0.02% Tween-20; average constants of the kinetic fit (the paper says koff attained or exceeded the accuracy limits of the instruments)
[13] = molecular target: E1 domain of zebrafish APPb, biotinylated (zebrafish); assay: as above
[14] = molecular target: FN1–FN3 region of zebrafish CNTN4 (zebrafish); assay: BLI; biotinylated zebrafish CNTN4(FN1–FN3) immobilised on streptavidin sensors, E1 domains of zebrafish APPb or APLP2 in solution; Octet K2; KD from the signal at equilibrium
[15] = molecular target: E1 domain of zebrafish APPb (zebrafish); assay: BLI; biotinylated E1 domain ([…] nM) immobilised on streptavidin tips, CNTN FN1–FN3 in solution; room temperature; 150 mM NaCl, 10 mM Na-Hepes pH 7.5, 1 mg/ml BSA, 0.02% Tween-20; BLItz or Octet K2; KD from the signal at equilibrium
[16] = molecular target: FN1-FN3 domains of zebrafish CNTN4, biotinylated (zebrafish); assay: BLI; Octet K2; biotinylated FN1-FN3 domains of zebrafish CNTN4 immobilised on streptavidin sensors, E1 domains of zebrafish APPb or APLP2 in solution; average constants of the kinetic fit
[17] = molecular target: FN1-FN3 domains of zebrafish CNTN4, biotinylated (zebrafish); assay: BLI; Octet K2; biotinylated FN1-FN3 domains of zebrafish CNTN4 immobilised on streptavidin sensors, E1 domains of zebrafish APPb or APLP2 in solution; steady state KD from the maximal signal at equilibrium against concentration
[18] = molecular target: E1 domain of human APLP2, biotinylated (human) (UniProt Q06481); assay: BLI; BLItz; biotinylated amyloid E1 domain ([…] nM) immobilised on streptavidin tips, CNTN FN1-FN3 in solution; room temperature; 150 mM NaCl, 10 mM Na-Hepes pH 7.5, 1 mg/ml BSA, 0.02% Tween-20; steady state KD from the maximal signal at equilibrium against concentration

Sequence of FN1-FN3 region of mouse CNTN3 (Q07409 20-1002): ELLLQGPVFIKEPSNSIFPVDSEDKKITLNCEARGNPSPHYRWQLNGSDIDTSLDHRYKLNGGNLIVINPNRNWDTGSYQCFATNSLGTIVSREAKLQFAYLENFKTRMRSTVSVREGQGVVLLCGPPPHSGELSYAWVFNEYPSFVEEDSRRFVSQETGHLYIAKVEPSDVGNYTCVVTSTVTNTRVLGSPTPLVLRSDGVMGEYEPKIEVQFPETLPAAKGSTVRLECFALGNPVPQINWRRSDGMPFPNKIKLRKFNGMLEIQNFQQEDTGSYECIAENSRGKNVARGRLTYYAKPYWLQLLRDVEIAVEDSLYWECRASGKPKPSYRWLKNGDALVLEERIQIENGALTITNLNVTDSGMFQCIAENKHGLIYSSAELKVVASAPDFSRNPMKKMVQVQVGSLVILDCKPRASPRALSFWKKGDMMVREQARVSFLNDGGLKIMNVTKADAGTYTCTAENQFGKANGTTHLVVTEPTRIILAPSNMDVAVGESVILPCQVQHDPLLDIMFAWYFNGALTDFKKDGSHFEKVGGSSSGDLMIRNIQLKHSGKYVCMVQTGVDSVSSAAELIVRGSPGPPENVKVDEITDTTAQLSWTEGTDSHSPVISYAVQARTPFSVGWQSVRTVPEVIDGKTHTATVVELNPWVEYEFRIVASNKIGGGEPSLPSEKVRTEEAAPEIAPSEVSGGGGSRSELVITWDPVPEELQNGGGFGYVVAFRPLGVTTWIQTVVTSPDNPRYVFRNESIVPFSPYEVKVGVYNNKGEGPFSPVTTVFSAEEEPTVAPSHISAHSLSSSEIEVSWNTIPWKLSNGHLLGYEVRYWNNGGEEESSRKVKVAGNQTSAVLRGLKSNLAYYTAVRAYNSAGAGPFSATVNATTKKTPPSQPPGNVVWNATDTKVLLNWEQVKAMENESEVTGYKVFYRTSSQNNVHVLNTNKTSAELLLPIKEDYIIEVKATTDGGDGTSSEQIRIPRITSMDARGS
Sequence of ectodomain of contactin 4 (CNTN4) fused to human IgG1 Fc or to FcYTS (Q69Z26 19-1000): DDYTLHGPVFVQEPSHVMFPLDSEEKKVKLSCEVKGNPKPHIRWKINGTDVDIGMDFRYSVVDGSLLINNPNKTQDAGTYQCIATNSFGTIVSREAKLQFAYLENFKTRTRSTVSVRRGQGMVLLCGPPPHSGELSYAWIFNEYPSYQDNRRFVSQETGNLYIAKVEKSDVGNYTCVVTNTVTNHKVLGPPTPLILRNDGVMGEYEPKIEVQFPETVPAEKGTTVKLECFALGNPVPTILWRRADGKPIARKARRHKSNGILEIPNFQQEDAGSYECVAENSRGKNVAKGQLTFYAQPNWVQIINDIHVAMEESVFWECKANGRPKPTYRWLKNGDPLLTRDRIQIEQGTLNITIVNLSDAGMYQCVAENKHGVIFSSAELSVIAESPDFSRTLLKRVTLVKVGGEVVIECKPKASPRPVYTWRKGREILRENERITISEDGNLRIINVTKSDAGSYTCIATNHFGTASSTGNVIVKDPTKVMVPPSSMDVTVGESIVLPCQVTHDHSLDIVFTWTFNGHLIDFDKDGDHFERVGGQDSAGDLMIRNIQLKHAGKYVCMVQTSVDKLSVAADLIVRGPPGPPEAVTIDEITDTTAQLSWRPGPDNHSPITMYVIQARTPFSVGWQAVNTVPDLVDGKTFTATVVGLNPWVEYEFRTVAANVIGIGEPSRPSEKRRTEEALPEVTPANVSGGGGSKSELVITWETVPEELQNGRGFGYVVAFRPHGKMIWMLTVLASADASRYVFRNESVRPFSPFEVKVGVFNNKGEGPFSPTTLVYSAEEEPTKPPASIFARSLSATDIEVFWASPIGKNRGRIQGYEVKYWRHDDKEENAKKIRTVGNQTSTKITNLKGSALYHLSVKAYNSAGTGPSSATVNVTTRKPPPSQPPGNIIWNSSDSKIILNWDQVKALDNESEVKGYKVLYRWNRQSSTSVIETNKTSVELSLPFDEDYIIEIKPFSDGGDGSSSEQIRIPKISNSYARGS

Substance: FN1–FN3 region of chicken CNTN4, T751A and V752A (domain or fragment)
- fold reduction in affinity against wild-type chicken CNTN4 [1]: 4 fold

Substance: FN1-FN3 region of chicken CNTN3 (domain or fragment)
- Kd [2]: 182 µM
- koff [2]: 0.9 s⁻¹
- kon [2]: 7250 M⁻¹ s⁻¹
- Kd [3]: 46.8 µM

Substance: ectodomain of contactin 4 (CNTN4) fused to human IgG1 Fc or to FcYTS (from UniProt Q69Z26 19-1000) (Fc fusion)
- luminescent signal [4]: 1.56e+06
- luminescent signal divided by the signal of APP-FcYTS with Fc only [4]: 848

Substance: FN1-FN3 region of human CNTN3 (from UniProt Q9P232 20-1002) (domain or fragment)
- Kd [6]: 4.5 µM
- koff [6]: 0.1 s⁻¹
- kon [6]: 2190 M⁻¹ s⁻¹
- Kd [7]: 403 µM
- koff [7]: 0.79 s⁻¹
- kon [7]: 2560 M⁻¹ s⁻¹
- Kd [8]: 9.1 µM
- Kd [9]: 63.3 µM

Substance: FN1-FN3 region of zebrafish CNTN5 (domain or fragment)
- Kd [13]: 64.4 µM
- koff [13]: 0.59 s⁻¹
- kon [13]: 9560 M⁻¹ s⁻¹

Substance: E1 domain of zebrafish APLP2 (domain or fragment)
- Kd [14]: 21.4 µM

Substance: FN1–FN3 region of zebrafish CNTN5 (domain or fragment)
- Kd [15]: 26.8 µM

The next lines start with the values.

- Kd [1]: 115 µM
Substance: FN1–FN3 region of chicken CNTN4, Y781A and E786A (domain or fragment)

- Kd [5]: 2.9 µM
- koff [5]: 0.15 s⁻¹
- kon [5]: 56200 M⁻¹ s⁻¹
Substance: FN1-FN3 region of mouse CNTN3 (from UniProt Q07409 20-1002) (domain or fragment)

- Kd [2]: 441 µM
- koff [2]: 0.38 s⁻¹
- kon [2]: 10300 M⁻¹ s⁻¹
- Kd [3]: 20.9 µM
Substance: FN1-FN3 region of chicken CNTN4 T751A, V752A (domain or fragment)

- Kd [6]: 0.4 µM
- koff [6]: 0.03 s⁻¹
- kon [6]: 64500 M⁻¹ s⁻¹
- Kd [7]: 18.7 µM
- koff [7]: 0.33 s⁻¹
- kon [7]: 19200 M⁻¹ s⁻¹
- Kd [10]: 4.8 µM
- koff [10]: 0.2 s⁻¹
- kon [10]: 43000 M⁻¹ s⁻¹
- Kd [8]: 1.5 µM
- Kd [9]: 8 µM
Substance: FN1-FN3 region of human CNTN4 (from UniProt Q8IWV2 19-1000) (domain or fragment)

- Kd [1]: 5.4 µM
- Kd [11]: 28.2 µM
Substance: FN1–FN3 region of chicken CNTN4 (domain or fragment)

- Kd [2]: 8.2 µM
- koff [2]: 0.19 s⁻¹
- kon [2]: 33900 M⁻¹ s⁻¹
- Kd [12]: 26.6 µM
- koff [12]: 0.33 s⁻¹
- kon [12]: 21600 M⁻¹ s⁻¹
Substance: FN1-FN3 region of chicken CNTN4 (domain or fragment)

- Kd [16]: 0.11 µM
- koff [16]: 0.03 s⁻¹
- kon [16]: 170000 M⁻¹ s⁻¹
- Kd [17]: 0.401 µM
- Kd [14]: 0.4 µM
Substance: E1 domain of zebrafish APPb (domain or fragment)

- Kd [2]: 330 µM
- koff [2]: 0.59 s⁻¹
- kon [2]: 5450 M⁻¹ s⁻¹
- Kd [3]: 115 µM
Substance: FN1-FN3 region of chicken CNTN4 Y781A, E786A (domain or fragment)

- Kd [6]: 9.8 µM
- koff [6]: 0.17 s⁻¹
- kon [6]: 17700 M⁻¹ s⁻¹
- Kd [10]: 36.6 µM
- koff [10]: 0.37 s⁻¹
- kon [10]: 9440 M⁻¹ s⁻¹
- Kd [8]: 10.9 µM
- Kd [18]: 38.6 µM
Substance: FN1-FN3 region of human CNTN5 (from UniProt O94779 19-1072) (domain or fragment)
